These results are taken from paper PMC8238500.

Holding throughout (experiment): BRET (NanoLuc-miniG recruitment to plasma-membrane K-ras-YFP)
Experiment [1] deals with NES-NanoLuc-MiniG subtype miniG12. The following applies: 500 ng receptor plasmid; parent: est. 0.020; read off a plot.
Experiment [2] deals with NES-NanoLuc-MiniG subtype miniGi. To be noted: 500 ng receptor plasmid; parent: est. -0.023; read off a plot.
Experiment [3] has as its target NES-NanoLuc-MiniG subtype miniGs. The following applies: 500 ng receptor plasmid; parent: est. 0.092; read off a plot.
The target in experiment [4] is NES-NanoLuc-MiniG subtype miniGq. The following applies: 500 ng receptor plasmid; parent: est. -0.030; read off a plot.

For “G protein-coupled receptor 3 (GPR3), wild type (from UniProt P46089) DRY-mutant”, the response in experiment [1] is 0.027 AU; in experiment [2], -0.013 AU; in experiment [3], 0.011 AU; in experiment [4] it was -0.015 AU.
